This is an account of results in patent US20210292413A1.

Assay [1] has as its target HBV purified from blood of chronic hepatitis B patients (hHBV virions carrying hHBsAg) (hepatitis B virus from CHB patients). As to the kind of experiment: BLI, Siglec-3.Fc immobilized on the sensor, untreated hHBV in solution. On the technique in general: BLI is a label-free optical method that tracks binding on a fibre tip over time.
The target in assay [2] is hHBV treated with sialidase S (hepatitis B virus from CHB patients). As to the kind of experiment: BLI, Siglec-3.Fc immobilized on the sensor, sialidase S-treated hHBV in solution.
The target in assay [3] is HBV purified from blood of chronic hepatitis B patients (hHBV virions carrying hHBsAg) (hepatitis B virus from CHB patients). Nature of the assay: BLI, Siglec-3.Fc immobilized on the sensor, hHBV in solution.
Assay [4] shares this target. As to the kind of experiment: calculated from three BLI results by the multivalency equation of paragraph 89.

In the case of “recombinant human Siglec-3 ECD.Fc fusion protein (from UniProt P20138 18-259)”, in assay [1], the Kd (as a rule, the equilibrium constant for the complex coming apart) turned out to be 591 pM; the koff (in general, a measure of how fast the partners let go of each other) was determined as 0.000697 s⁻¹; the kon – broadly, the rate constant with which the complex forms – came out at 1.18e+06 M⁻¹ s⁻¹. In assay [2], this substance showed a Kd of 384 pM, a koff of 0.000273 s⁻¹ and a kon of 711000 M⁻¹ s⁻¹. In assay [3], this substance displayed a Kd of 115 pM, a koff of 0.000358 s⁻¹ and a kon of 3.11e+06 M⁻¹ s⁻¹. For the same substance, the valence (N) in assay [4] is 2.
